Measurements: paper PMC10881500, “Structure-guided engineering of immunotherapies targeting TRBC1 and TRBC2 in T cell malignancies” (Nature Communications, 2024)
Residue numbers refer to the chain shown, from its start. Names and notes keep the numbering of the source. Where two headings read alike, the source gives them in different places.

B1: MuJovi-1 (antibody, V domains shown)
VH: EVRLQQSGPDLIKPGASVKMSCKASGYTFTGYVMHWVKQRPGQGLEWIGFINPYNDDIQSNERFRGKATLTSDKSSTTAYMELSSLTSEDSAVYYCARGAGYNFDGAYRFFDFWGQGTTLTVSS
VL: DVVMTQSPLSLPVSLGDQASISCRSSQRLVHSNGNTYLHWYLQKPGQSPKLLIYRVSNRFPGVPDRFSGSGSGTDFTLKISRVEAEDLGIYFCSQSTHVPYTFGGGTKLEIK
B2: RFN (Mut4; HuJovi-1 VH T28R, Y32F, A96N), human IgG1 (antibody, V domains shown)
VH: QVQLVQSGAEVKKPGASVKVSCKASGYRFTGFVMHWVRQAPGQGLEWMGFINPYNDDIQSNERFRGRVTMTRDTSISTAYMELSRLRSDDTAVYYCARGNGYNFDGAYRFFDFWGQGTMVTVSS
VL: B1 VL with V2I, S14T, L15P, D17E, Q18P, K50R, L88V, I90V, F92Y, G105Q
notes: as the VH of m1 with the stated changes; positions in Kabat numbering; constant region of the human IgG1 heavy chain; as the light chain of m1; IgG1 in the SPR; also called Arg28/Phe32/Asn96; source: ExpiCHO, transient transfection, purified (MabSelect SuRe)
B3: KFN scFv-Fc (scFv, V domains shown)
VH: B2 VH with R28K
VL: B1 VL with V2I, S14T, L15P, D17E, Q18P, K50R, L88V, I90V, F92Y, G105Q
notes: scFv of KFN: VH and VL as in m6 (PDB 7AMS, 7AMR), that is the VH of m1 with the stated changes (Kabat numbering); scFv-Fc with a murine IgG2a Fc; captured on a Protein A chip; source: ExpiCHO, transient transfection, purified (MabSelect SuRe)
B4: HuJovi-1 (humanized Jovi-1), human IgG1 (antibody, V domains shown)
VH: B2 VH with R28T, F32Y, N100A
VL: B1 VL with V2I, S14T, L15P, D17E, Q18P, K50R, L88V, I90V, F92Y, G105Q
notes: VH of HuJovi-1 (CDRs of Jovi-1 grafted on IGHV1-2*02); constant region of the human IgG1 heavy chain; whole light chain (CDRs of Jovi-1 grafted on IGKV2-29*02, kappa constant from the AbVec kappa vector); IgG1; The section on CDR grafting names HEK293T as host, the section on antibody expression ExpiCHO; also called aTRBC1; source: ExpiCHO, transient transfection, purified (MabSelect SuRe)
B5: Mut1 (HuJovi-1 VH T28K), human IgG1 (antibody, V domains shown)
VH: B2 VH with R28K, F32Y, N100A
VL: B1 VL with V2I, S14T, L15P, D17E, Q18P, K50R, L88V, I90V, F92Y, G105Q
notes: as the VH of m1 with the stated change; positions in Kabat numbering; constant region of the human IgG1 heavy chain; as the light chain of m1; IgG1; also called Lys28 mutant; Thr28Lys; source: ExpiCHO, transient transfection, purified (MabSelect SuRe)
B6: Mut6 (HuJovi-1 VH A96N), human IgG1 (antibody, V domains shown)
VH: B2 VH with R28T, F32Y
VL: B1 VL with V2I, S14T, L15P, D17E, Q18P, K50R, L88V, I90V, F92Y, G105Q
notes: as the VH of m1 with the stated change; positions in Kabat numbering; constant region of the human IgG1 heavy chain; as the light chain of m1; IgG1; source: ExpiCHO, transient transfection, purified (MabSelect SuRe)
B7: Mut7 (HuJovi-1 VH T28K, A96N), human IgG1 (antibody, V domains shown)
VH: B2 VH with R28K, F32Y
VL: B1 VL with V2I, S14T, L15P, D17E, Q18P, K50R, L88V, I90V, F92Y, G105Q
notes: as the VH of m1 with the stated changes; positions in Kabat numbering; constant region of the human IgG1 heavy chain; as the light chain of m1; IgG1; source: ExpiCHO, transient transfection, purified (MabSelect SuRe)
B8: Mut2 (HuJovi-1 VH T28K, Y32F), human IgG1 (antibody, V domains shown)
VH: B2 VH with R28K, N100A
VL: B1 VL with V2I, S14T, L15P, D17E, Q18P, K50R, L88V, I90V, F92Y, G105Q
notes: as the VH of m1 with the stated changes; positions in Kabat numbering; constant region of the human IgG1 heavy chain; as the light chain of m1; IgG1; also called Lys28/Phe32; Thr28Lys, Tyr32Phe double mutant; source: ExpiCHO, transient transfection, purified (MabSelect SuRe)
B9: KFN (Mut3; HuJovi-1 VH T28K, Y32F, A96N), human IgG1 (antibody, V domains shown)
VH: B2 VH with R28K
VL: B1 VL with V2I, S14T, L15P, D17E, Q18P, K50R, L88V, I90V, F92Y, G105Q
notes: VH of KFN: as the VH of m1 (PDB 7AMP, 7AMQ) with the stated changes, positions in Kabat numbering; constant region of the human IgG1 heavy chain; as the light chain of m1; IgG1; also called Lys28/Phe32/Asn96; aTRBC2; source: ExpiCHO, transient transfection, purified (MabSelect SuRe)
B10: Mut5 (HuJovi-1 VH Y32F), human IgG1 (antibody, V domains shown)
VH: B2 VH with R28T, N100A
VL: B1 VL with V2I, S14T, L15P, D17E, Q18P, K50R, L88V, I90V, F92Y, G105Q
notes: as for B6
B11: HuJovi-1 scFv-Fc (scFv, V domains shown)
VH: B2 VH with R28T, F32Y, N100A
VL: B1 VL with V2I, S14T, L15P, D17E, Q18P, K50R, L88V, I90V, F92Y, G105Q
notes: scFv of HuJovi-1: VH and VL as in m1 (PDB 7AMP, 7AMQ); scFv-Fc with a murine IgG2a Fc; captured on a Protein A chip; source: ExpiCHO, transient transfection, purified (MabSelect SuRe)

Assays:
[1] = molecular target: T1, TCR with the TRBC1 β-chain constant domain, on cells (Homo sapiens, UniProt P01848;P01850)
Target sequence in this assay (P01848 whole entry, chain 1 of 2, the tested form may be a part): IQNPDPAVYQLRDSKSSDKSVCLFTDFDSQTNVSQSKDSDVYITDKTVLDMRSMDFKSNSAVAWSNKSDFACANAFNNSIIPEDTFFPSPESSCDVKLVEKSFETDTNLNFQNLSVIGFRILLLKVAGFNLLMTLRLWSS
Target sequence in this assay (P01850 whole entry, chain 2 of 2, the tested form may be a part): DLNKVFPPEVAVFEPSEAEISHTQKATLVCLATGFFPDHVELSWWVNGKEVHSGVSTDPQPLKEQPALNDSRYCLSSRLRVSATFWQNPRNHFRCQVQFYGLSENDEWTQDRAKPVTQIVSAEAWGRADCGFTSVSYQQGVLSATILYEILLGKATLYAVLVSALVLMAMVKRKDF

[2] = molecular target: T2, Recombinant, purified TRBC1 (soluble αβ TCR with the β-chain constant domain TRBC1), SPR analyte (Homo sapiens, HA1.7 TCR with TRBC1)
Target sequence in this assay (main, as listed by the source, chain 1 of 2): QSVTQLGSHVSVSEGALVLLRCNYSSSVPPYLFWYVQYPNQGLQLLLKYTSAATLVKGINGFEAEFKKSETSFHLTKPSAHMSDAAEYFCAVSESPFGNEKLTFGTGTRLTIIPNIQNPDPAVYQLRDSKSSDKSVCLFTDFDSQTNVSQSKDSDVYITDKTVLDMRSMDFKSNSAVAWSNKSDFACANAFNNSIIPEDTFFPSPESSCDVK
Target sequence in this assay (partner, as listed by the source, chain 2 of 2): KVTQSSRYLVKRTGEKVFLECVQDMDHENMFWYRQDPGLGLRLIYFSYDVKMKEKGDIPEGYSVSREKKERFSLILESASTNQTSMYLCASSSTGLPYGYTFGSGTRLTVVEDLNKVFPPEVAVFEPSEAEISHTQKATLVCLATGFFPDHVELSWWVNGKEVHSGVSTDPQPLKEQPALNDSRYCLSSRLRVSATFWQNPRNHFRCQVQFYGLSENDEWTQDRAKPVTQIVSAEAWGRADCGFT

[3] = molecular target: T3, Recombinant, purified TRBC2 (soluble αβ TCR with the β-chain constant domain TRBC2), SPR analyte (Homo sapiens, HA1.7 TCR with TRBC2); experiment: SPR; Biacore T200; antibody as human IgG1 captured with an anti-human capture kit on CM5 to 200 RU; TRBC1 or TRBC2 as analyte, 150 s contact, 300 s dissociation, 30 μl/min, 25 °C, HBS-P+ pH 7.4; 1:1 Langmuir model; conditions: both partners purified
T3 construct: also called recombinant TRBC2; source: recombinant, purified

[4] = molecular target: T2, Recombinant, purified TRBC1 (soluble αβ …); experiment: as above; conditions: both partners purified
[5] = molecular target: T3, Recombinant, purified TRBC2 (soluble αβ …); experiment: SPR; Biacore T200; scFv-Fc captured on a Series S Protein A chip to 50 RU; TRBC1 or TRBC2 as analyte, 150 s contact, 500 s dissociation, 30 μl/min, 25 °C, HBS-P+ pH 7.4; 1:1 Langmuir model; conditions: both partners purified
[6] = molecular target: T1, TCR with the TRBC1 β-chain constant …; experiment: flow cytometry on cells; HPB-ALL TRBC1, HPB-ALL TRBC2 or HPB-ALL TCR KO cells; titration of IgG from 10 μg/ml in 2-fold dilutions, 30 min RT; anti-human IgG Alexa Fluor 647; conditions: one partner purified
Target sequence in this assay (P01850 whole entry, looked up, chain 1 of 2, the tested form may be a part): as the sequence (P01850 whole entry, chain 2 of 2, the tested form may be a part) above
Target sequence in this assay (P01848 whole entry, looked up, chain 2 of 2, the tested form may be a part): as the sequence (P01848 whole entry, chain 1 of 2, the tested form may be a part) above

[7] = molecular target: T3, Recombinant, purified TRBC2 (soluble αβ …); experiment: not stated; bi-paratopic (avid) engagement allowed; Supplementary Fig. 12
[8] = molecular target: TCR with the TRBC2 β-chain constant domain, on cells (Homo sapiens, UniProt P01848;A0A5B9); experiment: flow cytometry on cells; staining of TCR+ cell lines with HuJovi-1 or KFN; conditions: one partner purified
Chain of TCR with the TRBC2 β-chain constant domain, on cells (A0A5B9 whole entry, looked up, chain 1 of 2, the tested form may be a part): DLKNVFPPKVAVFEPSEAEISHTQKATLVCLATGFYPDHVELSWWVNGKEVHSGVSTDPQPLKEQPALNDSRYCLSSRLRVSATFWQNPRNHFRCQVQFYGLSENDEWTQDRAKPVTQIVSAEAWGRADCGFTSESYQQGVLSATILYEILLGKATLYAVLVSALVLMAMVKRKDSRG
Chain of TCR with the TRBC2 β-chain constant domain, on cells (P01848 whole entry, looked up, chain 2 of 2, the tested form may be a part): as the sequence (P01848 whole entry, chain 1 of 2, the tested form may be a part) above

[9] = molecular target: T2, Recombinant, purified TRBC1 (soluble αβ …); experiment: SPR; Biacore T200; scFv-Fc captured on a Series S Protein A chip to 50 RU; TRBC1 or TRBC2 as analyte, 150 s contact, 500 s dissociation, 30 μl/min, 25 °C, HBS-P+ pH 7.4; 1:1 Langmuir model; conditions: both partners purified

Binder	Kd [3] [nM]	koff [3] [s⁻¹]	Kd [4] [nM]	koff [4] [s⁻¹]	other results
B1	–	–	–	–	binding result [1]: binds; Kd [2]: 1.6 nM
B2	582	0.045	1440	0.125	–
B3	–	–	–	–	Kd [5]: 1170 nM; koff [5]: 0.0995 s⁻¹
B4	–	–	2.57	0.000618	binding result [6]: binds
B5	7480	0.585	6.69	0.001	–
B6	379	0.00194	13.8	0.00197	–
B7	395	0.166	36.5	0.00524	–
B8	999	0.125	387	0.0689	–
B9	479	0.0386	–	–	fold affinity differential TRBC1:TRBC2 with bi-paratopic engagement [7]: > 100 fold; binding result [8]: binds
B10	–	–	426	0.0457	–
B11	–	–	–	–	Kd [9]: 7.51 nM; koff [9]: 0.003 s⁻¹
